{"source": "patent US20130164309A1", "about": "(RESEARCH FOUNDATION OF STATE UNIVERSITY OF NEW YORK, published 2013)", "binders": {"B1": {"name": "truncated TCblR 32-149 (receptor)", "chain": "not shown", "notes": "Secreted C-terminal deletion of the extracellular domain, expressed in HEK293 cells, used as culture medium; also called aa 150-233 deleted"}, "B2": {"name": "truncated TCblR 32-183 (receptor)", "chain": "not shown", "notes": "Secreted C-terminal deletion of the extracellular domain, expressed in HEK293 cells, used as culture medium; also called C-terminal 49 aa deleted (two N-glycosylation sites removed)"}, "B3": {"name": "recombinant extracellular domain of human TCblR (aa 32-233), untagged secreted form (receptor)", "chain": "EAAASPLSTPTSAQAAGPSSGSCPPTKFQCRTSGLCVPLTWRCDRDLDCSDGSDEEECRIEPCTQKGQCPPPPGLPCPCTGVSDCSGGTDKKLRNCSRLACLAGELRCTLSDDCIPLTWRCDGHPDCPDSSDELGCGTNEILPEGDATTMGPPVTLESVTSLRNATTMGPPVTLESVPSVGNATSSSAGDQSGSPTAYGVIA", "notes": "Expressed in HEK 293 cells and secreted into the culture medium; also called TCblR ECD; extracellular TCblR"}, "B4": {"name": "TCblR 32-137, 166-233-mycHis (receptor, not shown: small tags and cut ends)", "chain": "EAAASPLSTPTSAQAAGPSSGSCPPTKFQCRTSGLCVPLTWRCDRDLDCSDGSDEEECRIEPCTQKGQCPPPPGLPCPCTGVSDCSGGTDKKLRNCSRLACLAGELGCGTNEILPEGDATTMGPPVTLESVTSLRNATTMGPPVTLESVPSVGNATSSSAGDQSGSPTAYGVIA", "notes": "Secreted, expressed in HEK293 cells, used as culture medium; also called second LDLR-A domain removed"}, "B5": {"name": "TCblR 32-52, 64-233-mycHis (receptor, not shown: small tags and cut ends)", "chain": "EAAASPLSTPTSAQAAGPSSGSGLCVPLTWRCDRDLDCSDGSDEEECRIEPCTQKGQCPPPPGLPCPCTGVSDCSGGTDKKLRNCSRLACLAGELRCTLSDDCIPLTWRCDGHPDCPDSSDELGCGTNEILPEGDATTMGPPVTLESVTSLRNATTMGPPVTLESVPSVGNATSSSAGDQSGSPTAYGVIA", "notes": "Secreted, expressed in HEK293 cells, used as culture medium; also called p53-63del; N-terminal 11 residues (aa 53-63) of the first LDLR-A domain deleted"}}, "key": {"truncated TCblR 32-183 [1]": {"target": "B2", "test": "sandwich ELISA, mAb as capture"}, "truncated TCblR 32-149": {"target": "B1", "test": "sandwich ELISA, mAb as capture"}, "[2]": {"target": "B3", "test": "sandwich ELISA, mAb as capture, TCblR construct in HEK293 medium; +++ OD 2-3, ++ OD 1-2, + OD 0.5-1, - OD <0.5"}, "TCblR 32-233-mycHis": {"target": "T1, TCblR 32-233-mycHis (human, UniProt Q9NPF0 32-233)", "T1 construct": "Secreted, expressed in HEK293 cells, used as culture medium; also called extracellular TCblR in pcDNA3.1 (-) mycHisA", "T1 sequence": "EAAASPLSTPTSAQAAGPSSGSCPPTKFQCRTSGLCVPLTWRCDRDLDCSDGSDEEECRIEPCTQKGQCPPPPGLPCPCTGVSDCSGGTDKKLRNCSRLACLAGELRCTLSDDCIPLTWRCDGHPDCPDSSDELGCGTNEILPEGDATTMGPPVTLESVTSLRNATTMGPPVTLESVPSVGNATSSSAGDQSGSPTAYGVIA", "test": "sandwich ELISA, mAb as capture, TCblR construct in HEK293 medium; +++ OD 2-3, ++ OD 1-2, + OD 0.5-1, - OD <0.5"}, "[3]": {"target": "T2, TCblR 32-94, 142-233-mycHis (human, UniProt Q9NPF0 32-233)", "T2 construct": "also called TCblR without the CUB domain; region between the two LDLR-A domains deleted", "test": "sandwich ELISA, mAb as capture, TCblR construct in HEK293 medium; +++ OD 2-3, ++ OD 1-2, + OD 0.5-1, - OD <0.5"}, "[4]": {"target": "B4", "test": "sandwich ELISA, mAb as capture, TCblR construct in HEK293 medium; +++ OD 2-3, ++ OD 1-2, + OD 0.5-1, - OD <0.5"}, "[5]": {"target": "B5", "test": "sandwich ELISA, mAb as capture, TCblR construct in HEK293 medium; +++ OD 2-3, ++ OD 1-2, + OD 0.5-1, - OD <0.5"}, "[6]": {"target": "T3, TC-Cbl (recombinant human transcobalamin saturated with cobalamin) (human, UniProt P20062 19-427)", "T3 construct": "also called holo-TC; holoTc", "T3 sequence (looked up)": "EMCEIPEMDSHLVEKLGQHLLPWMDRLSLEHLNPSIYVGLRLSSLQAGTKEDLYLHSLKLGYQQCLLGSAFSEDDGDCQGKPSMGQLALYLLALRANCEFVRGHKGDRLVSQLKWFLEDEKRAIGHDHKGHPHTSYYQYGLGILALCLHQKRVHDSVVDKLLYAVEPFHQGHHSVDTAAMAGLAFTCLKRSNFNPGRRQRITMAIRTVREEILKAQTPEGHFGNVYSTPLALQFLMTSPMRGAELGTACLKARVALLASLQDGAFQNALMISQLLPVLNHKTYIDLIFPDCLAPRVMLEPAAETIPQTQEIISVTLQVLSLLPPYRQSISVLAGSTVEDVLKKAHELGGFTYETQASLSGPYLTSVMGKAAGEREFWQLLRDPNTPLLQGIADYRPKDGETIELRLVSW", "test": "radiolabelled TC-Cbl binding, indirect competition with full-length secreted TCblR"}, "[7]": {"target": "T3, TC-Cbl (recombinant human …)", "test": "radiolabelled TC-Cbl binding, WGA-agarose separation"}, "[8]": {"target": "T3, TC-Cbl (recombinant human …)", "test": "radiolabelled TC-Cbl binding to mutated secreted receptor"}, "[9]": {"target": "T3, TC-Cbl (recombinant human …)", "test": "radiolabelled TC-Cbl binding to deletion constructs"}, "[10]": {"target": "B4", "test": "sandwich ELISA, mAb as capture"}, "truncated TCblR 32-183 [11]": {"target": "B2", "test": "sandwich ELISA, mAb as capture, TCblR construct in HEK293 medium; +++ OD 2-3, ++ OD 1-2, + OD 0.5-1, - OD <0.5"}, "[12]": {"target": "T3, TC-Cbl (recombinant human …)", "test": "binding and internalization of TC-[57Co]Cbl by transfected HEK293 cells"}}}
{"binder": "mAb 1-19 (antibody, V domains shown, also called TCblRKB 1-19; monoclonal antibody 1-19) VH: DVQLQESGPGLVKPSQSLSLTCTVLGYSITSDYAWNWIRQFPGNKLEWMGYISFSGNIRYNPSLESRISITRDTSKSQFFLQLNSVTTEDRGTYYCARAGLGRVFYFDYWGQGTALTVSS VL: DIVMSQSPSSLAVSVGEKVTMSCKSSQSLLYSSNQKNYLAWYQQKPGQSPQLLIFRASTRESGVPDRFTGSGSGTDFTLTISSVKPEDLAVYFCQQYYNYPFTFGSGTTLEIK", "values": [{"measurement": "OD", "setting": "truncated TCblR 32-183 [1]", "result": "< 0.5", "unit": "od"}, {"measurement": "OD", "setting": "truncated TCblR 32-149", "result": "< 0.5", "unit": "od"}, {"measurement": "OD", "setting": "[2]", "result": "1 to 2", "unit": "od"}, {"measurement": "OD", "setting": "TCblR 32-233-mycHis", "result": "2 to 3", "unit": "od"}, {"measurement": "OD", "setting": "[3]", "result": "1 to 2", "unit": "od"}, {"measurement": "OD", "setting": "[4]", "result": "1 to 2", "unit": "od"}, {"measurement": "OD", "setting": "[5]", "result": "2 to 3", "unit": "od"}]}
{"binder": "B1", "values": [{"measurement": "binding result", "setting": "[6]", "result": "no binding"}]}
{"binder": "mAb 1-23 (antibody, V domains shown) VH: DVQLQESGPGLVKPSQSLSLTCTVTGYSITSDYAWNWIRQFPGNKLEWMGYIAYTNRTFYTPSLESRISITRDTSKNQFFLQLNSVTTEDTGTYYCARNSGKTYGFTYWGQGTLVTVSA VL: DIVMSQSPSSLVVSIGEKVTMSCKSSQRLLYSANQKNYLAWYQQKPGQSPKLLIYWASTRESGVPDRFTGSGSGTDFTLTISSVRAEDLALYYCQQFYNYPLTFGSGTKLEIK", "values": [{"measurement": "OD", "setting": "truncated TCblR 32-183 [1]", "result": "< 0.5", "unit": "od"}, {"measurement": "OD", "setting": "truncated TCblR 32-149", "result": "< 0.5", "unit": "od"}, {"measurement": "OD", "setting": "[2]", "result": "1 to 2", "unit": "od"}, {"measurement": "OD", "setting": "TCblR 32-233-mycHis", "result": "1 to 2", "unit": "od"}, {"measurement": "OD", "setting": "[3]", "result": "1 to 2", "unit": "od"}, {"measurement": "OD", "setting": "[4]", "result": "1 to 2", "unit": "od"}, {"measurement": "OD", "setting": "[5]", "result": "1 to 2", "unit": "od"}]}
{"binder": "B2", "values": [{"measurement": "binding result", "setting": "[6]", "result": "binds"}]}
{"binder": "B3", "values": [{"measurement": "binding result", "setting": "[7]", "result": "binds"}]}
{"binder": "extracellular TCblR mycHis mutant pDE85, 86>LL (receptor, not shown: small tags and cut ends, Made on the extracellular TCblR cDNA in pcDNA3.1 (-) mycHisA, expressed in HEK293 cells; also called D85L, E86L) EAAASPLSTPTSAQAAGPSSGSCPPTKFQCRTSGLCVPLTWRCDRDLDCSDGSLLEECRIEPCTQKGQCPPPPGLPCPCTGVSDCSGGTDKKLRNCSRLACLAGELRCTLSDDCIPLTWRCDGHPDCPDSSDELGCGTNEILPEGDATTMGPPVTLESVTSLRNATTMGPPVTLESVPSVGNATSSSAGDQSGSPTAYGVIA", "values": [{"measurement": "binding result", "setting": "[8]", "result": "no binding"}]}
{"binder": "extracellular TCblR mycHis mutant pDE163, 164>LL (receptor, not shown: small tags and cut ends, Made on the extracellular TCblR cDNA in pcDNA3.1 (-) mycHisA, expressed in HEK293 cells; also called D163L, E164L) EAAASPLSTPTSAQAAGPSSGSCPPTKFQCRTSGLCVPLTWRCDRDLDCSDGSDEEECRIEPCTQKGQCPPPPGLPCPCTGVSDCSGGTDKKLRNCSRLACLAGELRCTLSDDCIPLTWRCDGHPDCPDSSLLLGCGTNEILPEGDATTMGPPVTLESVTSLRNATTMGPPVTLESVPSVGNATSSSAGDQSGSPTAYGVIA", "values": [{"measurement": "binding result", "setting": "[8]", "result": "no binding"}]}
{"binder": "B4", "values": [{"measurement": "binding result", "setting": "[9]", "result": "no binding"}]}
{"binder": "B5", "values": [{"measurement": "binding result", "setting": "[7]", "result": "no binding"}]}
{"binder": "mAb 1-25 (antibody, V domains shown, also called TCblRKB1-25) VH: DVQLQESGPDLVKPSQSLSITCTVTGYSITSDYSWHWIRQFPGNKLEWMGYIHSSGITNYNPSLKSRISITRDTSKNQFFLHLSSMTNEDTATYYCTRPPVVTRYFDVWGAGTTVTVSS VL: DIVMTQSPSSLTVTAGEKVTMSCKSSQGLLDSGNQKNYLTWYQQKPGQPPKLLIYWASTRKSGVPDRFTGSGSGTDFTLTISSVQAEDLAVYYCQNDYTYPLTFGAGTKLELK", "values": [{"measurement": "OD", "setting": "truncated TCblR 32-149", "result": "< 0.5", "unit": "od"}, {"measurement": "OD", "setting": "[10]", "result": "< 0.5", "unit": "od"}, {"measurement": "OD", "setting": "[2]", "result": "1 to 2", "unit": "od"}, {"measurement": "OD", "setting": "truncated TCblR 32-183 [11]", "result": "2 to 3", "unit": "od"}, {"measurement": "OD", "setting": "TCblR 32-233-mycHis", "result": "1 to 2", "unit": "od"}, {"measurement": "OD", "setting": "[3]", "result": "0.5 to 1", "unit": "od"}, {"measurement": "OD", "setting": "[5]", "result": "2 to 3", "unit": "od"}]}
{"binder": "TCblR with the cytoplasmic tail deleted, on HEK293 cells (receptor, Limits derived; also called TCblR without the cytoplasmic domain; membrane-anchored receptor) EAAASPLSTPTSAQAAGPSSGSCPPTKFQCRTSGLCVPLTWRCDRDLDCSDGSDEEECRIEPCTQKGQCPPPPGLPCPCTGVSDCSGGTDKKLRNCSRLACLAGELRCTLSDDCIPLTWRCDGHPDCPDSSDELGCGTNEILPEGDATTMGPPVTLESVTSLRNATTMGPPVTLESVPSVGNATSSSAGDQSGSPTAYGVIAAAAVLSASLVTATLLLL", "values": [{"measurement": "binding result", "setting": "[12]", "result": "binds"}]}
